The nanobody polyreactivity screen of Harvey et al. (2022)

Test: yeast display, Sf9 membrane polyspecificity reagent, FACS + sequencing; frameworks hold sequencing errors
How it was run: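 Genes from sorted yeast were amplified by colony PCR, read by MiSeq 2 × 250 sequencing and filtered on CDR length. These cells carried a synthetic nanobody library in Saccharomyces cerevisiae BJ5465 and were sorted by FACS into low and high (top ~1%) gates on anti-HA and streptavidin fluorescence. Polyreactivity is labelled according to the gate of origin.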

Row | Sequence | polyreactivity (PSR sort gate)
1 | QVQLVESGGGLVQAGGSLRLSCAASGRIFYRNAMGWYRQAPGKEREFVAAITFRSGGTYYADSVKGRFTISRDNAKNTVYLQMNSLKPEDTAVYYCATRYLGASRYGYWGQGTQVTVSS | high polyreactivity
2 | QVQLVESGGGLVQAGGSLRLSCAASGRIFYRNAMGWYRQAPGKERELVAAITWRGGSTYYADSVKGRFTISRDNAKNTVYLQMNSLKPEDTAVYYCNTRYGRIHWKANWPEYGYWGQGTQVTVSS | low polyreactivity
3 | QVQLVESGGGLVQAGGSLRLSCAASGRIFYRNAMGWYRQAPGKERELVASITSGGRTNYADSVKGRFTISRDNAKNTVYLQMNSLKPEDTAVYYCAAPPPYSVRTFRFYYWGQGTQVTVSS | high polyreactivity
4 | QVQLVESGGGLVQAGGSLRLSCAASGRIFYRNAMGWYRQAPGKERELVAVITSSSGSTYADSVKGRFTISRDNAKNTVYLQMNSLKPEDTAVYYCAAEEDYIYFYVSMDYWGQGTQVTVSS | low polyreactivity
5 | QVQLVESGGGLVQAGGSLRLSCAASGRIFYRNAMGWYRQAPGQERELDAGITRGGSTNYADSVKGRFTISRDNAKNTVYLQMNSLKPEDTAVYYCAKAIPAKFYSEAGYDYWGQGTQVTVSS | low polyreactivity
6 | QVQLVESGGGLVQAGGSLRLSCAASGRIFYRYAMGWYRQAPGKEREFVAAISGTGGSTYYADSVKGRFTISRDNAKNTVYLQMNSLKPEDTAVYYCAASVVSRPTYYAYYYWGQGTQVTVSS | high polyreactivity
7 | QVQLVESGGGLVQAGGSLRLSCAASGRIFYRYAMGWYRQAPGKERELVAAISRTGSRTYYADSVKGRFTISRDNAKNTVYLQMNSLKPEDTAVYYCNKVSAPAEFRSRGYWGQGTQVTVSS | high polyreactivity
8 | QVQLVESGGGLVQAGGSLRLSCAASGRIFYRYAMGWYRQAPGKERELVAAISSGGSTYYADSVKGRFTISRDNAKNTVYLQMNSLKPEDTAVYYCAATWGRGTYYLYYYWGQGTQVTVSS | high polyreactivity
9 | QVQLVESGGGLVQAGGSLRLSCAASGRIFYRYAMGWYRQAPGKERELVAAISTSGARTYYADSVKGRFTISRDNAKIYVYLQMNSLKPVDTAVYYCAATATVSKFGYWGQGTQVTVSS | low polyreactivity
10 | QVQLVESGGGLVQAGGSLRLSCAASGRIFYRYAMGWYRQAPGKERELVAAITGSGGSTYYADSVKGRFTISRDNAKNTVYLQMNSLKPEDTAVYYCNAVYARYGSQGYEYWGQGTQVTVSS | high polyreactivity
11 | QVQLVESGGGLVQAGGSLRLSCAASGRIFYRYAMGWYRQAPGKERELVAAITYSGGSTYYADSVKGRFTISRDNAKNTVYLQMNSLKPEDTAVYYCAAGGRGRPTTPPYGWYKLNYWGQGTQVTVSS | high polyreactivity
12 | QVQLVESGGGLVQAGGSLRLSCAASGRIFYRYAMGWYRQAPGKERELVAGISNSGGSTYYADSVKGRFTISRDNAKNTVYLQMNSLKPADTAVYYCATGPSYRYDIGGGRIRYYYWGQGTQVSVSS | high polyreactivity
13 | QVQLVESGGGLVQAGGSLRLSCAASGRIFYRYAMGWYRQAPGKERELVATISSGASTNYADSVKGRFTISRDNAKNTVYVQMNSLKPEDTADYYCARLSLRYSYVSRDYWGHGTQVTVSS | low polyreactivity
14 | QVQLVESGGGLVQAGGSLRLSCAASGRIFYRYARGWYRQAPGKERELVAAITSGTSTNYADSVKGRFTFSRDNAKNTVYLQMNSLKPEDTAVYYCAKRYYCKYAEYDYWGQGTQVTVSS | high polyreactivity
15 | QVQLVESGGGLVQAGGSLRLSCAASGRIFYSKVMGWYRQAPGKERELVAALSGRTGGTYYADSVKGRFTISRDNAKNTVYLQMNSLKPEDTAVYYCAARVLYYYGSGPYDYWGQGTQVTVSS | low polyreactivity
16 | QVQLVESGGGLVQAGGSLRLSCAASGRIFYSNAMGWYRQAPGKERELVAAISRSGVRTYYADSVKGRFTISRDNAKNTVYLQMNSLKPEDTAVYYCAADLYWWSYYYWGQGTQVTVSS | low polyreactivity
17 | QVQLVESGGGLVQAGGSLRLSCAASGRIFYSNAMGWYRQAPGKERELVAAISSSGGSTYYADSVKGRFTISRDNAKNTVDLQMNSLKPEDTAVYYCNAVHARYRSQGDYWGQGTQVTVSS | low polyreactivity
18 | QVQLVESGGGLVQAGGSLRLSCAASGRIFYSNAMGWYRQAPGKERELVAANTSGGNTYYADSVKGRFTISRDNAKNTVYLLMNSLKPEDTAVYYCAADHYWRRSGFGYWGQGTQVTVSS | low polyreactivity
19 | QVQLVESGGGLVQAGGSLRLSCAASGRIFYSNTMGWYRQAPGKVRELVAAISRRGGSTYYADSVKGRFTISRDNAKTTVYLQMNSLKPEDTALYYCNTGYSTRLHDYWGQGTQVTVSS | high polyreactivity
20 | QVQLVESGGGLVQAGGSLRLSCAASGRIFYSYAMGWYREAPGKERELVARITRGSSTYYADSVKGRFTISRDNAKNTVYLQMNSLKPEDTAVYYCAKSRYTALTNHWSHDYWGQGTQVTVSS | low polyreactivity
21 | QVQLVESGGGLVQAGGSLRLSCAASGRIFYSYAMGWYRQAPGKEREFVAAISYSGGSTYYADSVKGRFTISRDNAKNTVFLQMNSLKPEDTAVYYCAAKVKFYTYYYWGQGTQVTVSS | high polyreactivity
22 | QVQLVESGGGLVQAGGSLRLSCAASGRIFYSYAMGWYRQAPGKERELVAAISSAGSTYYADSVKGRFTISRDNAKNTVYLQMNSLKPEDSAVYYCAAYRAGNSYYPRLNYWGQGTQVTVSS | high polyreactivity

Row | Sequence | polyreactivity (PSR sort gate)
23 | QVQLVESGGGLVQAGGSLRLSCAASGRIFYSYGMGWYRQAPGKERELVATISIGGSTNYADSVKGRFTSSRDNAKNTVYLQMNSLKPEDTAVYYCNARAWFSYTSRRYTYWQEGYWGQGTQVTVSS | high polyreactivity
24 | QVQLVESGGGLVQAGGSLRLSCAASGRIFYTNAMGWYRQAPGKERELVAGIRFNGGSTYYADSVKGRFTISRDNAKNTVYLQMNSLKPEDTAVYYCAVRTYYSGYDSWGQGTQVTVSS | low polyreactivity
25 | QVQLVESGGGLVQAGGSLRLSCAASGRIFYTYAMGWYRQAPGKERELVAAINYSSASTYYADSVKGRFTISRDNAKNTVYLQMNSLKPEDTAVYYCNVAYVYGSFRRRPMGYWGQGTQVTVSS | high polyreactivity
26 | QVQLVESGGGLVQAGGSLRLSCAASGRIFYTYAMGWYRQAPGKERELVAAITYRGGSTYYADSVKGRFTISRDNAKNTVYLQMNSLKPEDTAVYYCATQLWDRYGFGYWGQGTQVTVSS | high polyreactivity
27 | QVQLVESGGGLVQAGGSLRLSCAASGRIFYVYAMGWYRQAPGKERELVAAITSSGGTTYYADSVKGRFTISRDNAKNTVYLQMNSLKPEDTAVYYCNLIYRYGWGDYWGQGTQVTVSS | high polyreactivity
28 | QVQLVESGGGLVQAGGSLRLSCAASGRIFYVYTMGWYRQAPGKERELVASIRRSGGSTYYADSVKGRFTISRDNAKNTVYLQMNSLKPEDTAVYYCAARYNSAANDKRYYYWGQGTQVTVSS | high polyreactivity
29 | QVQLVESGGGLVQAGGSLRLSCAASGRIFYWNVMGWYRQAPGKERELVAAISSSGASTSYADSVKGRFTISRDNAKNTVYLQMNSLKPEDTAVYHCAARTRRNYRQYNYWGQGTQVTVSS | high polyreactivity
30 | QVQLVESGGGLVQAGGSLRLSCAASGRIFYYNAMGWYRPAPGKERELVAAINYRGGSTYYADSVKGRFTISRDNAKNTVYFQMNSLKPEDTAVYDCAARYWKDGSTYDYWGQGTQVTVSS | high polyreactivity
31 | QVQLVESGGGLVQAGGSLRLSCAASGRIFYYNAMGWYRQAPGKEMELVAAITSGGSTNYADSVKGRFTISRDNAKNTVYLQMNSLKPEDTAVYYCAADYYYYVAGVHYDYWGQGTQVTVSS | low polyreactivity
32 | QVQLVESGGGLVQAGGSLRLSCAASGRIFYYNAMGWYRQAPGKERELVAAINYRGGSTYYADSVKGRFTISRDNAKNTVYLQMNSLKPEDTAVYYCAARYWEDGSTYDYWGQGTQVTVSS | high polyreactivity
33 | QVQLVESGGGLVQAGGSLRLSCAASGRIFYYNDMGWYRQAPGKERELVATITIGNSTNYADSVKGRFTISRDNAKNTVYLQMKSLKPEDTAVYYCNADYSDVTTGDWRYENDYWGQGTQVTVSS | low polyreactivity
34 | QVQLVESGGGLVQAGGSLRLSCAASGRIFYYNDMGWYRQAPGKERELVATITIGNSTNYADSVKGRFTISRDNAKNTVYLQMNSLKPEDTAVYYCNADYSDVTTGDWRYENDYWGQGTQVTVSS | low polyreactivity
35 | QVQLVESGGGLVQAGGSLRLSCAASGRIFYYNTMGWYRQAPGKERELVARITYSGGRTYYADSVKGRFTISRDNAKNTVYLQMNSLKPEDTAVYYCNTAYRYFERQMYYWGQGTQVTVSS | high polyreactivity
36 | QVQLVESGGGLVQAGGSLRLSCAASGRIFYYNVMGWYRQAPGKERELVAAITWSGGSTYYADSVKGRFTISRDNAKNTVYLQMNSLKPEDTAVYYCAAKFSKWTLKKYYYWGQGTQVTVSS | high polyreactivity
37 | QVQLVESGGGLVQAGGSLRLSCAASGRIFYYNVMGWYRQAPGKERELVADIRSGDRTYYADSVKGRFTISRDNAKNTVYLQMNSLKPEDTAVYYCAADGWYRRGYYYWGQGTQVTVSS | low polyreactivity
38 | QVQLVESGGGLVQAGGSLRLSCAASGRIFYYYALGWYRQAPGKERELVAAISSIDGTTYYADSVKGRFTISRDNAKNTVYLQMNSLKPEDTAVYYCAAEDPADQYDYWGQGTQVTVSS | high polyreactivity
39 | QVQLVESGGGLVQAGGSLRLSCAASGRIFYYYAMGWYRQAPGKEREFVAAIRVTSDSTYYADSVKGRFTISRDNAKNTVYLQMNSLKPEDTAVYYCAADSFYFPYDYWGQGTQVTVSS | high polyreactivity
40 | QVQLVESGGGLVQAGGSLRLSCAASGRIFYYYAMGWYRQAPGKEREFVADISARGGSTYYADSVKGRFTISRDNAKKTVYLEMNSLKPEDTAVYYCAATTGLYTRYGYWGQGTQVTVSS | high polyreactivity
41 | QVQLVESGGGLVQAGGSLRLSCAASGRIFYYYAMGWYRQAPGKERELVAAITRGGGTYYADSVKGRFTISRDNAKNTVYLQMNSLKPEDTAVYYCAKRGPPESHHPYRYRFDYWGQGTQVTVSS | low polyreactivity
42 | QVQLVESGGGLVQAGGSLRLSCAASGRIFYYYAMGWYRQAPGKERELVAAITSGGRTYYADSVKGRFTISRDNAKNTVYLQMNSLKPEDTAVYYCAADRTYTYLGPGYEYWGQGTQVTVSS | low polyreactivity
43 | QVQLVESGGGLVQAGGSLRLSCAASGRIFYYYAMGWYRQAPGKERELVAVISRGGRTKYADSVKGRFTISRDNAKNTVYLQMNSLKPEDTAVYYCAVGLSGASSGMGYWGQGTQVTVSS | high polyreactivity
